For this test, the target named is CXCR4CFP (human) (UniProt P61073). Nature of the test: FRET or BRET; sensitized-emission FRET imaging as above; cells treated with chemokines (CCL3/MIP1α, CCL5/RANTES or CXCL12/SDF-1) for 20 min before imaging; N-FRET on the plasma membrane against the unstimulated control.
CXCR4CFP (human), sequence (P61073 whole entry): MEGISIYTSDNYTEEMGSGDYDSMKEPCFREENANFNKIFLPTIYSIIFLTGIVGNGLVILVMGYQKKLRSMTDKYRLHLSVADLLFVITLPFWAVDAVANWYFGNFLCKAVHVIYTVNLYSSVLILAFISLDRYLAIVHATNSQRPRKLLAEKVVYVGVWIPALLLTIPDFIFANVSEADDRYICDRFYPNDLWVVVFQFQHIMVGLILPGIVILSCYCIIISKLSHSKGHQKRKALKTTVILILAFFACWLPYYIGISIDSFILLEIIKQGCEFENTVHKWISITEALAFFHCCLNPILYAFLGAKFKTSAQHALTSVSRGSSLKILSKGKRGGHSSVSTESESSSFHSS

CCR5YFP, P51681 1-352 (receptor; other documents disagree on this pair), sequence (P51681 whole entry): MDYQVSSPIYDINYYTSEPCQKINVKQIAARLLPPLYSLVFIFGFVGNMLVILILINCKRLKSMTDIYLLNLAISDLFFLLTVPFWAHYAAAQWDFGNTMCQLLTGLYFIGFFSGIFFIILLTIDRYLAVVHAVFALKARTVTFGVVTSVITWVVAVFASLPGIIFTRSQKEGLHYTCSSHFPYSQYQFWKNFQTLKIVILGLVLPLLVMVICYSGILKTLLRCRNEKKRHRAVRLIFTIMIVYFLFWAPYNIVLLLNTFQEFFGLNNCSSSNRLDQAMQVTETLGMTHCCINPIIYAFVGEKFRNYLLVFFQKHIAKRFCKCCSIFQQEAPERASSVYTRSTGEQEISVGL

With “CCR5YFP, P51681 1-352 (receptor; other documents disagree on this pair)”, the increase of N-FRET with CCL3/MIP1α against the unstimulated control was found to be 30% and the increase of N-FRET with CCL5/RANTES against the unstimulated control was 30%.

The values above are taken from paper PMC2566588.
